Conditions: Homo sapiens; pH 2.7; Thermal; DSC; Gly-HCl 0.05 M; reversible: yes; whole UniProt chain shown

B1: Lysozyme C wild type, P61626 (protein)
chain: MKALIVLGLVLLSVTVQGKVFERCELARTLKRLGMDGYRGISLANWMCLAKWESGYNTRATNYNAGDRSTDYGIFQINSRYWCNDGKTPGAVNACHLSCSALLQDNIADAVACAKRVVRDPQGIRAWVAWRNRCQNRDVRQYVQGCGV
Tm: 64.9 °C | heat capacity change of unfolding: 1.58 kcal/mol/K | unfolding enthalpy (van 't Hoff): 114 kcal/mol

Reference: FireProtDB (doi:10.1002/prot.1147)
